Read-outs that look alike come from different tables or passages of the source.
Columns and labels:
[1] = target: T1, rhNav1.7α+β1-β2-β3 (rhesus monkey α subunit with human β …); experiment: binding FACS, CHO FlpIn cells
T1 construct: P2A cleaves it into α, β1, β2, β3; also called rhNav1.7-beta1-beta2-beta3

[2] = target: T2, huNav157 chimera 14 + β1-β2-β3 on cells (human (huNav1.7α/huNav1.5α chimera)); experiment: binding FACS, HEK FlpIn cells
T2 construct: Extracellular loops and transmembrane helices of Nav1.7α, intracellular loops of Nav1.5α; P2A linkers are cleaved co-translationally; also called HEK FlpIn Nav157ch14-β1-β2-β3; huNav157 chimera 14-beta1-beta2-beta3

[3] = target: T3, huNav157 chimera 14 on cells (without β subunits) (human (huNav1.7α/huNav1.5α chimera)); experiment: binding FACS, HEK FlpIn cells
T3 construct: also called HEK FlpIn Nav157ch14

[4] = target: T4, huNav1.7α on HEK cells (without β subunits) (human, UniProt Q15858 1-1988); experiment: binding FACS, HEK cells (HEKa)
T4 construct: also called HEKa huNav1.7α

[5] = target: huNav1.7α + β1 on HEK cells (human, UniProt Q15858 1-1988; Q07699 19-218); experiment: binding FACS, HEK cells (HEKa/b1)
[6] = target: T5, huNav1.7α(F276V) + β1-β2-β3 (human, UniProt Q15858 1-1988; A5A6L6 19-218; O60939 30-215; Q2KI11 23-215); experiment: binding FACS, CHO FlpIn cells
T5 construct: polyprotein as encoded, P2A sites liberate the subunits; the entry already carries F276V; also called huNav1.7(F276V)-beta1-beta2-beta3
Experimental: (§1) Binding of the ISVDs to cell-expressed Nav1.7α was detected via murine anti-Flag (Sigma, catalog #F1804). Briefly, cells were resuspended in FACS buffer (PBS, 10% FBS, NaN₃) and transferred to a 96-well V-bottom plate at 1×10^5 cells/well. Purified FLAG3-tagged ISVD was diluted in FACS buffer and added to the cells for 30 minutes at 4° C. […] Prior to the read-out, the samples were resuspended in 1 μg/mL propidium iodide (Sigma, catalog #P4170) to exclude dead cells. Between each step, the cells were centrifuged for 5 minutes at 200 grams and washed with 100 μL/well FACS buffer.
(§2) Based on the huNav1.7α model (as described above) the following huNav1.7α-rhNav1.7α polymorphisms can be allocated to the extracellular part of DI: N146S, F276V, R277Q, E281V and V331M. The first of the residues is in DI S1-S2 whereas the latter four residues belong to DI S5-S6. FACS binding studies (as described above) were performed to stable CHO FlpIn cell lines expressing different variants of huNav1.7+β1−β2−β3 each including one of the four possible extracellular huNav1.7α-rhNav1.7α polymorphisms in the DI S5-S6 region: F276V, R277Q, E281V and V331M (Table 23 and FIGS. 22A-22F). Individual polymorphisms were each sufficient to abolish the binding of F0103265B04, F0103362B08, F010301080, and F0103262B06 to huNav1.7α, recapitulating the absence of binding on rhNav1.7α. F0103262CO2, F0103275B05 and F0103387G05 are more subtly affected in terms of EC50 or Bmax by some of the polymorphisms. None of the individual DI S5-S6 polymorphisms by themselves appear to have an impact on the binding of the two rhNav1.7α cross-reactive ISVDs F0103387G04 and F0103464B09. In addition, no effect on binding of the two ISVDs was observed (data not shown) for the three extracellular DIV VSD huNav1.7α-rhNav1.7α polymorphisms Q1530P, H1531Y and E1534D (FIG. 22G).

[7] = target: T6, rhNav1.7α + β1-β2-β3 (rhesus monkey); experiment: binding FACS, CHO FlpIn cells
T6 construct: also called rhNav1.7-beta1-beta2-beta3; rhesus Nav1.7α
Experimental: as §1, §2

[8] = target: T7, huNav1.7α(V331M) + β1-β2-β3 (human); experiment: binding FACS, CHO FlpIn cells
T7 construct: polyprotein as encoded; the entry already carries V331M; also called huNav1.7(V331M)-beta1-beta2-beta3
Experimental: as §1, §2

[9] = target: T8, huNav1.7α + β1-β2-β3 (human, UniProt Q15858 1-1988; A5A6L6 19-218; O60939 30-215; Q2KI11 23-215); experiment: binding FACS, CHO FlpIn cells
T8 construct: Cell line (CHO FlpIn, HEK FlpIn, transient HEK293T) is named under assay; also called huNav1.7-beta1-beta2-beta3; human Nav1.7α with Navβ1, Navβ2 and Navβ3
Experimental: as §1, §2

[10] = target: T9, huNav1.7α(R277Q) + β1-β2-β3 (human); experiment: binding FACS, CHO FlpIn cells
T9 construct: polyprotein as encoded; the entry already carries R277Q; also called huNav1.7(R277Q)-beta1-beta2-beta3
Experimental: as §1, §2

[11] = target: T10, huNav1.7α(E281V) + β1-β2-β3 (human); experiment: binding FACS, CHO FlpIn cells
T10 construct: polyprotein as encoded; the entry already carries E281V; also called huNav1.7(E281V)-beta1-beta2-beta3
Experimental: as §1, §2

[12] = target: T8, huNav1.7α + β1-β2-β3; experiment: competition FACS, HEK FlpIn cells, vs EC30 of CMYC3-F0103265B04
Experimental: Competition FACS assays were performed with CMYC3-tagged ISVD F0103265B04 or F0103275B05(N93R) affinity maturation variant on a HEK FlpIn huNav1.7α+β1−β2−β3 transgenic cell line. Briefly, cells were resuspended in FACS buffer (PBS, 2% FBS, 0.05% NaN₃) and 1×10⁵ cells/well were transferred to 96-well V-bottom plates. Cells were subsequently resuspended in a 100 μL mixture of purified ISVD (dilution series) and CMYC3-tagged ISVD F0103265B04 (at a concentration equivalent to EC30) followed by incubation for 1.5 hours at 4° C. […] Between each step, the cells were centrifuged for 5 minutes at 200 g and washed with 100 μL/well FACS buffer. Prior to the read-out, the samples were resuspended in 5 nM TOPRO3 (Molecular probes, catalog #T3605) to exclude dead cells. F0103262CO2, F0103262B06, F0103265A11, F0103265B04, F0103275B05, F0103362B08, and F0103387G04 all compete with F0103265B04 for binding to huNav1.7α, in contrast to an irrelevant control ISVD (IRR) (see Table 21 and FIG. 15A, FIG. 15B, FIG. 15C, and FIG. 15D).

[13] = target: T11, huNav1.7α + β1 (HEKa/β1) (human, UniProt Q15858 1-1988; Q07699 19-218); experiment: binding FACS, HEKa/β1 cells
T11 construct: also called HEKa/β1 huNav1.7α
Summary of the method: (§3)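 Cells at 1×10^5 per well incubated 30 min at 4 °C with purified FLAG3-tagged ISVD in FACS buffer (PBS, 10% FBS, NaN₃); bound ISVD detected via murine anti-Flag by flow cytometry, dead cells excluded with 1 μg/mL propidium iodide.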

[14] = target: T12, huNav1.7α (HEKa) (human, UniProt Q15858 1-1988); experiment: binding FACS, HEKa cells
T12 construct: also called HEKa huNav1.7α
Summary of the method: as §3

[15] = target: T8, huNav1.7α + β1-β2-β3; experiment: binding FACS, CHO FlpIn cells; remark: listed apart in the source
Summary of the method: as §3

[16] = target: T13, huNav1.7α + β1-β2-β3 (human Nav1.7α co-expressed with human Navβ1, Navβ2 and Navβ3 on cells) (human); experiment: binding FACS, CHO FlpIn cells
T13 construct: also called huNav1.7-beta1-beta2-beta3; CHO FlpIn huNav1.7α + β1-β2-β3
Summary of the method: as §3

Binder	EC50 [2]	EC50 [3]	EC50 [4]	EC50 [5]	also measured
F010302368 (VHH, F010302365 background plus R39Q, A63V) VHH: EVQLVESGGGVVQPGGSLRLSCAASSRAFIRDVFTGWYRQAPGKQRELVARIYNGGNTNYADSVKGRFTISRDNAKKTVYLQMNSLRPEDTALYYCLFSGTISTGREYRSGDYWGQGTLVTVSS	–	–	–	–	binding result [1]: no binding
F010302333 (VHH, F010302365 background plus A28Q, G54E) VHH: EVQLVESGGGVVQPGGSLRLSCAASSRQFIRDVFTGWYRRAPGKQRELVARIYNEGNTNYADSAKGRFTISRDNAKKTVYLQMNSLRPEDTALYYCLFSGTISTGREYRSGDYWGQGTLVTVSS	–	–	–	–	binding result [1]: no binding
F010301641 (VHH, also called F0103275B05(R76_V78insT)(L11V, R76N, T83R, V89L)) VHH: EVQLVESGGGVVQPGGSLRLSCAASGSIFNINSMAWYRRAPGKQRELVASSTNGGSTNYADSVKGRFTISRDNAKNTVYLQMNSLRPEDTALYYCNALLQPSIYDISRTYWGQGTLVTVSS	350 nM	310 nM	380 nM	230 nM	–
F010301080 (VHH) VHH: EVQLVESGGGLVQPGGSLRLSCAASGMLFNANTQGWYRQAPGKQRELVAFIFWGGYVTYNDSVKGRFTISRDNAKRTMYLQMNSLKPEDSAIYYCSLSRYLGQGTLVTVSS	–	–	–	–	EC50 [6]: 2.6 nM; binding result [7]: no binding; binding result [8]: no binding; EC50 [9]: 3.4 nM; EC50 [10]: 3.2 nM; EC50 [11]: 2.5 nM
F0103362B08 (VHH, entry includes the FLAG-HIS6 tag; also called F0103362B08 (parental)-FLAG-HIS6) VHH: EVQLVESGGGLVQAGGSLRLSCAASVRPFSTSAMGWFRQAPEKEREAVAGILWNGIVTYYADSVKGRFTISRDNAKNEVYLQMNKLKPEDTAVYYCALDRDYGGRSFSAYEYEYWGQGTLVTVSS	–	–	–	–	IC50 [12]: 150 nM; EC50 [13]: 34 nM; EC50 [14]: 19 nM; EC50 [6]: 42 nM; binding result [7]: no binding; binding result [8]: no binding; EC50 [9]: 43 nM; EC50 [10]: 34 nM; EC50 [11]: 34 nM; EC50 [15]: 110 nM
F0103275B05 (VHH, also called F0103275B05 (parental)-FLAG-HIS6) VHH: EVQLVESGGGLVQPGGSLRLSCAASGSIFNINSMAWYRRAPGKQRELVASSTNGGSTNYADSVKGRFTISRDNAKRVYLQMNSLTPEDTAVYYCNALLQPSIYDISRTYWGQGTLVTVSS	33 nM	12 nM	14 nM	39 nM	EC50 [16]: 66 nM
F010301635 (VHH, also called F0103275B05(L11V, R39Q, T83R, V89L)) VHH: EVQLVESGGGVVQPGGSLRLSCAASGSIFNINSMAWYRQAPGKQRELVASSTNGGSTNYADSVKGRFTISRDNAKRVYLQMNSLRPEDTALYYCNALLQPSIYDISRTYWGQGTLVTVSS	35 nM	16 nM	19 nM	31 nM	–
F010301636 (VHH, also called F0103275B05(L11V, R76N, T83R, V89L)) VHH: EVQLVESGGGVVQPGGSLRLSCAASGSIFNINSMAWYRRAPGKQRELVASSTNGGSTNYADSVKGRFTISRDNAKNVYLQMNSLRPEDTALYYCNALLQPSIYDISRTYWGQGTLVTVSS	45 nM	14 nM	17 nM	30 nM	–
F010301637 (VHH, also called F0103275B05(L11V, T83R, V89L)) VHH: EVQLVESGGGVVQPGGSLRLSCAASGSIFNINSMAWYRRAPGKQRELVASSTNGGSTNYADSVKGRFTISRDNAKRVYLQMNSLRPEDTALYYCNALLQPSIYDISRTYWGQGTLVTVSS	29 nM	11 nM	13 nM	30 nM	EC50 [16]: 56 nM
F010301638 (VHH, also called F0103275B05(L11V, R39Q, R76N, T83R, V89L)) VHH: EVQLVESGGGVVQPGGSLRLSCAASGSIFNINSMAWYRQAPGKQRELVASSTNGGSTNYADSVKGRFTISRDNAKNVYLQMNSLRPEDTALYYCNALLQPSIYDISRTYWGQGTLVTVSS	50 nM	18 nM	23 nM	32 nM	–

Reference: patent publication US20240002497A1 (Merck Sharp & Dohme, published 2024)
